Data published in patent publication US20250152704A1 (PARAGON THERAPEUTICS, published 2025).
Each block holds one binder with its values, some of them ahead of it.

What was measured:
human serum albumin [1] = target: T1, human serum albumin (human, UniProt P02768 25-609); assay: SPR (Biacore 8K), Fc fusion captured by anti-human Fc on CM5, HSA as analyte, 25 C, pH 7.4, 1:1 fit
T1 construct: also called HSA
Experimental: (§1) Following a stabilization period in running buffer, the Fc fusion molecules at 20 nM were captured onto flow cell 2 (active) for 60 sec at a flow rate of 30 uL/min. […] Samples were injected in a multi-cycle manner over freshly captured Fc fusion molecule, by regenerating the capture surfaces with injection of 10 mM glycine pH 1.5 for 30 sec at a flow rate of 30 μL/min. The data was processed and analyzed with Biacore Insight Evaluation Software Version 2.0.15.12933 (GE Healthcare) as follows. […] The responses from the two buffer blank injections were then subtracted from the reference subtracted data (2-1) to yield double-referenced data, which were fit to a 1:1 binding model to determine the apparent association (ka) and dissociation rate constants (kd). Their ratio provided the apparent equilibrium dissociation constant or affinity constant (KD=kd/ka).

[2] = target: T2, Recombinant in-house Human FcRn protein (human, UniProt P55899 24-297; P61769 21-119, limits assumed); assay: SPR (Biacore 8K), Fc fusion captured by anti-human Fc on CM5, huFcRn as analyte, 25 C, pH 6.0, 1:1 fit
T2 construct: also called huFCRN; HuFcRn
Experimental: as §1

human serum albumin [3] = target: T1, human serum albumin; assay: SPR (Biacore 8K), Fc fusion captured by anti-human Fc on CM5, HSA as analyte, 25 C, pH 6.0, 1:1 fit
Experimental: as §1

[4] = target: T2, Recombinant in-house Human FcRn protein; assay: SPR (Biacore 8K), Fc fusion captured by anti-human Fc on CM5, huFcRn as analyte, 25 C, pH 7.4, 1:1 fit
Experimental: as §1

T1 sequence (P02768 25-609 limits assumed): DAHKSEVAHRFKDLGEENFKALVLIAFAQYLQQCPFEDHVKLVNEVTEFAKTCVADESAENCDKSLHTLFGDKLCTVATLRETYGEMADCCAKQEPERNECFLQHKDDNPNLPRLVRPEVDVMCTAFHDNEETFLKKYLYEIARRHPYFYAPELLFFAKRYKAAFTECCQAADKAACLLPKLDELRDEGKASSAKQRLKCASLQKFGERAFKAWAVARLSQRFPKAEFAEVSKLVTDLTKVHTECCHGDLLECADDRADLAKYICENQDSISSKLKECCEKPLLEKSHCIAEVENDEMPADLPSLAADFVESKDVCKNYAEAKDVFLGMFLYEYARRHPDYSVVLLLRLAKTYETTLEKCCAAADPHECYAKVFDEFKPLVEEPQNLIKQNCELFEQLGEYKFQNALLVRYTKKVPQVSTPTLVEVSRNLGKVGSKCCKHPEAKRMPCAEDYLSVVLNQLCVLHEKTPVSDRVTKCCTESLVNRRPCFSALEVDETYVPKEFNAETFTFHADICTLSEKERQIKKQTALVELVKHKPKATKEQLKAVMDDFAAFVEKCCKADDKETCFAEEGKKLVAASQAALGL

Kd (human serum albumin [1]): 12 nM | Kd [2]: 6.69 nM | Kd (human serum albumin [3]): 7.26 nM | Kd [4]: 371 nM
B1: Fc Fusion Molecule 11 (Fc fusion)
chain 1: EVQLLESGGGLVQPGGSLRLSCAASGFTFRSFGMSWVRQAPGKGPEWVSSISGSGSDTLYADSVKGRFTISRDNSKNTLYLQMNSLRPEDTAVYYCTIGGSLSRSSQGTLVTVSSGGGGSGGGGSGGGGSDKTHTCPPCPAPELLGGPSVFLFPPKPKDTLYITREPEVTCVVVDVSHEDPEVKFNWYVDGVEVHNAKTKPREEQYNSTYRVVSVLTVLHQDWLNGKEYKCKVSNKALPAPIEKTISKAKGQPREPQVCTLPPSRDELTKNQVSLSCAVKGFYPSDIAVEWESNGQPENNYKTTPPVLDSDGSFFLVSKLTVDKSRWQQGNVFSCSVMHEALKFHYTQKSLSLSPG
chain 2: DKTHTCPPCPAPELLGGPSVFLFPPKPKDTLYITREPEVTCVVVDVSHEDPEVKFNWYVDGVEVHNAKTKPREEQYNSTYRVVSVLTVLHQDWLNGKEYKCKVSNKALPAPIEKTISKAKGQPREPQVYTLPPCRDELTKNQVSLWCLVKGFYPSDIAVEWESNGQPENNYKTTPPVLDSDGSFFLYSKLTVDKSRWQQGNVFSCSVMHEALKFHYTQKSLSLSPG
notes: also called ABD1-(G4S)3-Efgart(KIH); ABD1-(G4S)3-Efgart(H)/Efgart(K)

Kd (human serum albumin [1]): 54.6 nM | Kd [2]: 11.3 nM | Kd (human serum albumin [3]): 33.4 nM | Kd [4]: 492 nM
B2: Fc Fusion Molecule 12 (Fc fusion)
chain 1: DKTHTCPPCPAPELLGGPSVFLFPPKPKDTLYITREPEVTCVVVDVSHEDPEVKFNWYVDGVEVHNAKTKPREEQYNSTYRVVSVLTVLHQDWLNGKEYKCKVSNKALPAPIEKTISKAKGQPREPQVCTLPPSRDELTKNQVSLSCAVKGFYPSDIAVEWESNGQPENNYKTTPPVLDSDGSFFLVSKLTVDKSRWQQGNVFSCSVMHEALKFHYTQKSLSLSPGGGGGSGGGGSGGGGSEVQLLESGGGLVQPGGSLRLSCAASGFTFRSFGMSWVRQAPGKGPEWVSSISGSGSDTLYADSVKGRFTISRDNSKNTLYLQMNSLRPEDTAVYYCTIGGSLSRSSQGTLVTVSS
chain 2: B1 chain 2
notes: also called Efgart(KIH)-(G4S)3-ABD1; Efgart(H)-(G4S)3-ABD1/Efgart(K)

Second part, the binder before the results:

B3: Fc Fusion Molecule 6 (Fc fusion)
chain: DKTHTCPPCPAPELLGGPSVFLFPPKPKDTLYITREPEVTCVVVDVSHEDPEVKFNWYVDGVEVHNAKTKPREEQYNSTYRVVSVLTVLHQDWLNGKEYKCKVSNKALPAPIEKTISKAKGQPREPQVYTLPPSRDELTKNQVSLTCLVKGFYPSDIAVEWESNGQPENNYKTTPPVLDSDGSFFLYSKLTVDKSRWQQGNVFSCSVMHEALKFHYTQKSLSLSPGGGGGSEVQLLESGGGLVQPGGSLRLSCAASGFTFRSFGMSWVRQAPGKGPEWVSSISGSGSDTLYADSVKGRFTISRDNSKNTLYLQMNSLRPEDTAVYYCTIGGSLSRSSQGTLVTVSS
notes: Made in CHO cells; also called Efgart-G4S-ABD1
Kd (human serum albumin [1]): 45.6 nM | Kd [2]: 2.1 nM | Kd (human serum albumin [3]): 33.8 nM | Kd [4]: 634 nM

B4: Fc Fusion Molecule 5 (Fc fusion)
chain: EVQLLESGGGLVQPGGSLRLSCAASGFTFRSFGMSWVRQAPGKGPEWVSSISGSGSDTLYADSVKGRFTISRDNSKNTLYLQMNSLRPEDTAVYYCTIGGSLSRSSQGTLVTVSSGGGGSDKTHTCPPCPAPELLGGPSVFLFPPKPKDTLYITREPEVTCVVVDVSHEDPEVKFNWYVDGVEVHNAKTKPREEQYNSTYRVVSVLTVLHQDWLNGKEYKCKVSNKALPAPIEKTISKAKGQPREPQVYTLPPSRDELTKNQVSLTCLVKGFYPSDIAVEWESNGQPENNYKTTPPVLDSDGSFFLYSKLTVDKSRWQQGNVFSCSVMHEALKFHYTQKSLSLSPG
notes: Made in CHO cells; also called ABD1-G4S-Efgart
Kd [2]: 8.07 nM | Kd (human serum albumin [3]): 6.32 nM | Kd [4]: 375 nM
